# Measured values reported in paper PMC10636138.
# Biological target: SARS-CoV-2 B.1 (Wuhan) RBD
# Assay: BLI
substance,measurement,value
CR3022,Kd,22.1 nM
